Reference: paper doi:10.1101/2025.07.24.666634 (bioRxiv, 2025)

Target: the molecule itself
Assay: cryo-EM structure; blot-and-plunge, dGTPase 3 mg/mL on UltrAuFoil R1.2/1.3 Au300; single-particle analysis, D3 symmetry

B1: Escherichia coli dGTP Triphosphohydrolase (enzyme, UniProt P15723 1-505, looked up)
chain: MAQIDFRKKINWHRRYRSPQGVKTEHEILRIFESDRGRIINSPAIRRLQQKTQVFPLERNAAVRTRLTHSMEVQQVGRYIAKEILSRLKELKLLEAYGLDELTGPFESIVEMSCLMHDIGNPPFGHFGEAAINDWFRQRLHPEDAESQPLTDDRCSVAALRLRDGEEPLNELRRKIRQDLCHFEGNAQGIRLVHTLMRMNLTWAQVGGILKYTRPAWWRGETPETHHYLMKKPGYYLSEEAYIARLRKELNLALYSRFPLTWIMEAADDISYCVADLEDAVEKRIFTVEQLYHHLHEAWGQHEKGSLFSLVVENAWEKSRSNSLSRSTEDQFFMYLRVNTLNKLVPYAAQRFIDNLPAIFAGTFNHALLEDASECSDLLKLYKNVAVKHVFSHPDVERLELQGYRVISGLLEIYRPLLSLSLSDFTELVEKERVKRFPIESRLFHKLSTRHRLAYVEAVSKLPSDSPEFPLWEYYYRCRLLQDYISGMTDLYAWDEYRRLMAVEQ
notes: also called dGTPase; E. coli dGTPase
  binding result: binds
